Experimental data published in the Human Domainome abundance scans (Beltran et al. 2025).
± gives the uncertainty stated by the source.

B1: Retinoic acid receptor beta, residues 85 to 161; numbered along this chain, P10826 (parent)
chain: YKPCFVCQDKSSGYHYGVSACEGCKGFFRRSIQKNMIYTCHRDKNCVINKVTRNRCQYCRLQKCFEVGMSKESVRND

Variants of: B1
Assay: abundance fitness (aPCA) (normalised: wild type 0, dead -1); higher = more abundant; growth selection in yeast, the domain comes from the species named
Details: Homo sapiens

Abundance fitness of substitutions, site by site:
S19: M -0.003 ± 0.056; I 0.066 ± 0.071; V 0.131 ± 0.04; F -0.09 ± 0.1; E 0.017 ± 0.051; Q 0.049 ± 0.062; T 0.02 ± 0.052; L -0.046 ± 0.05; A 0.011 ± 0.044; H -0.032 ± 0.092; C -0.088 ± 0.075; P -0.045 ± 0.077; D -0.285 ± 0.098; Y -0.048 ± 0.076; R -0.121 ± 0.041; W 0.024 ± 0.044; N -0.095 ± 0.092; K -0.21 ± 0.078
V18: D -0.637 ± 0.21; E -0.421 ± 0.075; F -0.108 ± 0.12; R -0.76 ± 0.1; Q -0.04 ± 0.065; G -0.22 ± 0.043; L -0.353 ± 0.059; I 0.012 ± 0.097; H -0.433 ± 0.26; Y -0.29 ± 0.11; M -0.209 ± 0.18; A 0.088 ± 0.044; P -0.365 ± 0.11; S -0.165 ± 0.062; C -0.106 ± 0.08; T 0.103 ± 0.17
G17: Y 0.101 ± 0.21; P -0.164 ± 0.11; W -0.603 ± 0.11; V -0.481 ± 0.064; L -0.368 ± 0.058; H -0.292 ± 0.13; T -0.242 ± 0.065; S -0.219 ± 0.052; Q -0.311 ± 0.073; N -0.091 ± 0.1; E -0.08 ± 0.057; A -0.278 ± 0.054; M -0.254 ± 0.071; C -0.24 ± 0.1; D -0.246 ± 0.081; R -0.288 ± 0.05; K -0.138 ± 0.061
G26: C -0.107 ± 0.069; E 0.107 ± 0.045; A -0.021 ± 0.045; F -0.193 ± 0.14; D 0.162 ± 0.078
C21: F -1.14 ± 0.48; K -0.91 ± 0.2; A -0.809 ± 0.12; E -0.575 ± 0.12; Y -0.885 ± 0.27; N -0.501 ± 0.2; R -0.666 ± 0.072; M -0.751 ± 0.17; I -0.89 ± 0.34; V -0.881 ± 0.11; L -0.752 ± 0.1; W -0.839 ± 0.17; D -0.904 ± 0.3; G -0.76 ± 0.073; Q -0.93 ± 0.27; S -0.933 ± 0.15; T -0.98 ± 0.27
G23: T -0.008 ± 0.053; M -0.227 ± 0.067; I -0.282 ± 0.14; H -0.114 ± 0.12; N -0.063 ± 0.11; Q 0.057 ± 0.056; K -0.288 ± 0.07; Y -0.452 ± 0.11; W -0.138 ± 0.045; S 0.114 ± 0.043; E 0.231 ± 0.04; V -0.149 ± 0.043; C 0.108 ± 0.056; D 0.228 ± 0.067; R -0.395 ± 0.049; P 0.072 ± 0.061; A 0.016 ± 0.042; F -0.304 ± 0.092
K25: C 0.02 ± 0.06; F 0.133 ± 0.073; G -0.017 ± 0.038; A 0.205 ± 0.04; V 0.183 ± 0.038; L 0.028 ± 0.044; Y -0.047 ± 0.083; H -0.223 ± 0.094; N 0.133 ± 0.069; R -0.069 ± 0.04; S 0.099 ± 0.042; T 0.048 ± 0.057; W 0.008 ± 0.053; I 0.094 ± 0.08; Q 0.122 ± 0.056; E 0.036 ± 0.043; D 0.031 ± 0.062
E22: S -0.239 ± 0.065; M -0.224 ± 0.066; I -0.267 ± 0.11; R -0.663 ± 0.072; P -0.324 ± 0.078; N -0.317 ± 0.11; K -0.205 ± 0.06; D -0.025 ± 0.071; L -0.186 ± 0.044; V -0.203 ± 0.044; T -0.126 ± 0.063; Q -0.316 ± 0.086; A -0.209 ± 0.05; W -0.368 ± 0.074; G -0.325 ± 0.049
Y16: P -0.115 ± 0.084; N -0.08 ± 0.068; S -0.072 ± 0.06; T -0.069 ± 0.058; L -0.045 ± 0.056; Q -0.027 ± 0.091; V -0.062 ± 0.07; W -0.126 ± 0.14; G 0.025 ± 0.06; M -0.15 ± 0.098; I -0.178 ± 0.074; K -0.295 ± 0.12
A20: R -0.785 ± 0.083; E -0.66 ± 0.1; G -0.614 ± 0.06; T -0.065 ± 0.063; V -0.07 ± 0.042; I 0.055 ± 0.093; Q -0.355 ± 0.082; F -0.077 ± 0.11; N -0.491 ± 0.2; C 0.064 ± 0.064; L -0.112 ± 0.049; W -0.672 ± 0.092; Y -0.594 ± 0.38; P -0.724 ± 0.2; S -0.07 ± 0.052; K -1.08 ± 0.24; M -0.228 ± 0.068
C24: S -0.793 ± 0.12; R -0.793 ± 0.094; N -1.07 ± 0.38; D -0.47 ± 0.18; M -0.817 ± 0.2; Y -0.309 ± 0.14; H -0.896 ± 0.38; F -0.577 ± 0.14; P -1.06 ± 0.42; A -1.03 ± 0.15; T -0.736 ± 0.22; K -0.89 ± 0.18; L -0.624 ± 0.11; W -0.955 ± 0.16; E -0.842 ± 0.12
